From publication PMC9684555, “Structure- and computational-aided engineering of an oxidase to produce isoeugenol from a lignin-derived compound” (Nature Communications, 2022)

How the values were obtained:
[1] = substrate: CCCc1ccc(O)c(OC)c1; test: purified protein; assay type: biochemical, Rhodococcus jostii; conditions: 50 mM KPi pH 7.5, 10% v/v DMSO, 10 µM to 1 mM substrate, O2 co-substrate, 1.0 µM enzyme
[2] = substrate: COc1cc(CO)ccc1O; test: purified protein; assay type: biochemical, Rhodococcus jostii; conditions: 50 mM KPi pH 7.5, O2 co-substrate, 0.05 µM enzyme

B1: EUGO (eugenol oxidase) (Rhodococcus jostii RHA1) (protein)
chain: MTRTLPPGVSDERFDAALQRFRDVVGDKWVLSTADELEAFRDPYPVGAAEANLPSAVVSPESTEQVQDIVRIANEYGIPLSPVSTGKNNGYGGAAPRLSGSVIVKTGERMNRILEVNEKYGYALLEPGVTYFDLYEYLQSHDSGLMLDCPDLGWGSVVGNTLDRGVGYTPYGDHFMWQTGLEVVLPQGEVMRTGMGALPGSDAWQLFPYGFGPFPDGMFTQSNLGIVTKMGIALMQRPPASQSFLITFDKEEDLEQIVDIMLPLRINMAPLQNVPVLRNIFMDAAAVSKRTEWFDGDGPMPAEAIERMKKDLDLGFWNFYGTLYGPPPLIEMYYGMIKEAFGKIPGARFFTHEERDDRGGHVLQDRHKINNGIPSLDELQLLDWVPNGGHIGFSPVSAPDGREAMKQFEMVRNRANEYNKDYAAQFIIGLREMHHVCLFIYDTAIPEAREEILQMTKVLVREAAEAGYGEYRTHNALMDDVMATFNWGDGALLKFHEKIKDALDPNGIIAPGKSGIWSQRFRGQNL
notes: full length, 526 residues, C-terminal His6 tag (pBAD-EUGO-His6x), E. coli NEB10beta; covalent FAD; homodimer; mutants for crystals from His-SUMO fusion, tag cleaved
Km [1]: 3.3 ± 0.9 µM
kcat [1]: 0.008 ± 0.0003 s⁻¹
Km [2]: 43.0 ± 2.2 µM
kcat [2]: 6.8 ± 0.2 s⁻¹
